According to publication PMC10216714, “NMR and Patch-Clamp Characterization of Yeast Mitochondrial Pyruvate Carrier Complexes” (Biomolecules, 2023):
Each block holds one binder with its values, some of them ahead of it.

Columns and labels:
[1] = biological target: T1, Saccharomyces cerevisiae mitochondrial pyruvate carrier 1 (Mpc1) with C-terminal 8×His-tag (Saccharomyces cerevisiae), P53157; assay: SEC-MALS; Superdex 75 with Dawn HELEOS II, three-detector method (MALS/UV/RI), 0.3 mL/min; 100 mM Tris/HCl pH 7.5, 150 mM NaCl, 1 mM EDTA, 10 mM β-ME, 1 mM DPC, 2 mM LDAO; second elution peak of each complex; conditions: remark: other sources report otherwise
T1 chain: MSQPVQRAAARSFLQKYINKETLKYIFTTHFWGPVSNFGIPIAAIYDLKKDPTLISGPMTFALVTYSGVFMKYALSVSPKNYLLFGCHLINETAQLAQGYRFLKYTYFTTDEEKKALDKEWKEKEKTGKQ

[2] = biological target: the molecule itself; assay: as above
[3] = biological target: T2, Mpc1^linker: Mpc1 with C-terminal ENLYFQG (TEV site), flexible linker (GGGGS)4, WSHPQFEK and 8×His-tag (Saccharomyces cerevisiae, UniProt P53157 1-130); assay: SEC; monomers refolded alone or pre-mixed 1:1 in LDAO/DPC (2:1), then Superdex 75 10/300 GL in 100 mM Tris/HCl pH 7.5, 150 mM NaCl, 1 mM EDTA, 10 mM β-ME, 1 mM DPC, 2 mM LDAO; peaks analysed by SDS-PAGE with Coomassie staining; conditions: both partners purified
T2 construct: Mpc1, Saccharomyces cerevisiae, NCBI NM_001180945; The extension was added so that Mpc1 and Mpc2 can be told apart by size on SDS-PAGE; no TEV cleavage is described; not shown: 8×His, C-terminal, kept
T2 sequence (looked up): T1 chain

[4] = biological target: T3, Saccharomyces cerevisiae mitochondrial pyruvate carrier 1 (Mpc1) with C-terminal 8×His-tag (Saccharomyces cerevisiae, UniProt P53157 1-130); assay: paramagnetic relaxation enhancement (PRE) NMR; MTSL-labelled monomer co-refolded with 15N-labelled monomer; 1H-15N BEST-TROSY with and without vitamin C; 25 mM NaAc pH 6.0, 50 mM glutamic acid, 50 mM arginine, 10 mM β-ME, 1 mM EDTA, 1 mM DPC, 2 mM LDAO; 308 K, 850 MHz; conditions: both partners purified
T3 construct: Mpc1, Saccharomyces cerevisiae, NCBI NM_001180945; amplified from a cDNA library with printed primers that run from the ATG to the last codon before the stop; 15N-labelled where it was the observed partner in NMR; The reverse primer carries a BamHI site, so a few vector-coded residues may lie between Mpc1 and the His-tag (surmised); also called 15N-Mpc1; yeast Mpc1
T3 sequence (looked up): T1 chain

stoichiometry N [1]: 2
B1: Saccharomyces cerevisiae mitochondrial pyruvate carrier 1 (Mpc1) with C-terminal 8×His-tag, P53157 1-130 (natural protein)
chain: T1 chain

stoichiometry N [3]: ~1
B2: Saccharomyces cerevisiae mitochondrial pyruvate carrier 2 (Mpc2) with C-terminal 8×His-tag (natural protein, UniProt P38857 1-129, looked up)
chain: MSTSSVRFAFRRFWQSETGPKTVHFWAPTLKWGLVFAGFSDMKRPVEKISGAQNLSLLSTALIWTRWSFVIKPRNILLASVNSFLCLTAGYQLGRIANYRIRNGDSISQLCSYILSGADESKKEITTGR
notes: Mpc2, Saccharomyces cerevisiae, NCBI NM_001179293; amplified from a cDNA library with printed primers that run from the ATG to the last codon before the stop; 15N-labelled where it was the observed partner in NMR; The reverse primer carries a BamHI site, so a few vector-coded residues may lie between Mpc2 and the His-tag (surmised); also called 15N-Mpc2; yeast Mpc2
stoichiometry N [2]: 2

binding result [4]: binds
B3: MTSL-labelled Mpc2 monomer (MTSL on C86 and C111) (natural protein, Saccharomyces cerevisiae, UniProt P38857 1-129, looked up)
chain: B2 chain
modifications: MTSL spin label on C86 and C111
notes: Mpc2, Saccharomyces cerevisiae, NCBI NM_001179293; same construct as m2, not isotope-labelled; Same chain as m2 with the paramagnetic probe on its cysteines; also called MTSL–Mpc2; source: E. coli Rosetta 2 (DE3), inclusion bodies, purified
